In paper PMC8892499:
Where two headings read alike, the source gives them in different places.

Assays:
[1] = biological target: OmpX_(1,149), double-cysteine variant of outer membrane protein X, labeled with FRET donor and acceptor dyes, unfolded (uOmpX) (UniProt P0A917); test: single-molecule FRET (smFRET) titration, intramolecular FRET of labeled uOmpX; as the titration at 37 °C, but at 25 °C: 20 pM labeled uOmpX in buffer with Skp3 or SurA; 20 mM Tris-HCl pH 8.0, 150 mM NaCl; Hill coefficient set to 1 (Skp3) and 1.5 (SurA)
[2] = biological target: OmpX_(1,149), double-cysteine variant of outer membrane protein X, labeled with FRET donor and acceptor dyes, unfolded (uOmpX) (UniProt P0A917); test: single-molecule FRET (smFRET) titration, intramolecular FRET of labeled uOmpX; global analysis of FRET efficiency distributions at different chaperone concentrations and temperatures (25, 31, 37 °C); ΔH and ΔS from the temperature dependence of Ka; errors by bootstrapping
[3] = biological target: OmpX_(1,149), double-cysteine variant of outer membrane protein X, labeled with FRET donor and acceptor dyes, unfolded (uOmpX) (UniProt P0A917); test: single-molecule FRET (smFRET) titration, intramolecular FRET of labeled uOmpX; 20 pM labeled uOmpX diluted from 6 M GdmCl into buffer with chaperone (Skp3 from 0.5 nM to 2.5 µM; SurA 46 nM to 25 µM); 20 mM Tris-HCl pH 8.0, 150 mM NaCl, 6 mM GdmCl, 87.5 nM LDAO; 37 °C; bound fraction from three Gaussian distributions; Hill coefficient set to 1 (Skp3) and 1.5 (SurA)
[4] = biological target: OmpX_(1,149), double-cysteine variant of outer membrane protein X, labeled with FRET donor and acceptor dyes, unfolded (uOmpX) (UniProt P0A917); test: single-molecule FRET (smFRET) titration, intramolecular FRET of labeled uOmpX; global analysis of FRET efficiency distributions at different chaperone concentrations and temperatures (25, 31, 37 °C); ΔH and ΔS from the temperature dependence of Ka; errors by bootstrapping; remark: listed apart in the source
[5] = biological target: OmpX_(1,149), double-cysteine variant of outer membrane protein X, labeled with FRET donor and acceptor dyes, unfolded (uOmpX) (UniProt P0A917); test: single-molecule FRET (smFRET) titration, intramolecular FRET of labeled uOmpX; 20 pM labeled uOmpX diluted from 6 M GdmCl into buffer with chaperone (Skp3 from 0.5 nM to 2.5 µM; SurA 46 nM to 25 µM); 20 mM Tris-HCl pH 8.0, 150 mM NaCl, 6 mM GdmCl, 87.5 nM LDAO; 37 °C; bound fraction from three Gaussian distributions; Hill coefficient set to 1 (Skp3) and 1.5 (SurA); remark: listed apart in the source

Row | dH [4] | Kd [5] | c1/2 (inverse of Ka) [5] | percent of uOmpX molecules bound at 2.5 µM Skp3 [5] | Molecule | Kd [1] | c1/2 (inverse of Ka) [1] | dH [2] | Kd [3] | c1/2 (inverse of Ka) [3] | percent of uOmpX molecules bound at ~6 µM SurA [3]
1 | – | – | – | – | survival factor A (SurA) (from UniProt P0ABZ6 21-428) (natural protein) | 1000 nM | 103 nM | -132 kJ/mol | 8.2 µM | 407 nM | 87%
2 | -298 kJ/mol | 359 nM | 359 nM | 80% | 17-kilodalton protein (Skp), trimer (Skp3) (natural protein) ADKIAIVNMGSLFQQVAQKTGVSNTLENEFKGRASELQRMETDLQAKMKKLQSMKAGSDRTKLEKDVMAQRQTFAQKAQAFEQDRARRSNEERGKLVTRIQTAVKSVANSQDIDLVVDANAVAYNSSDVKDITADVLKQVK | 3.6 nM | 3.55 nM | – | – | – | –
